Measured values published in patent publication US20200216532A1.
Residue numbers refer to the chain shown, from its start. Names may count otherwise. Blank lines part the entries; values can stand above or below the binder they belong to.

Assays:
[1] = target: antibodies against ISV in serum sample IHUS#B09032311A1; test: ECL drug-displacement assay vs labelled SEQ ID NO:1
[2] = target: antibodies against ISV in serum sample IHUS#B09032311A20; test: as above
[3] = target: antibodies against ISV in serum sample IHUS#B09032311A3; test: as above
[4] = target: affinity purified antibody IHuP#002-001-ABL-08; test: bridging/competition ADA assay, 10 ug/ml ISV vs labelled ISV
[5] = target: analytical polyclonal antibody generated in Example 2; test: SPR Biacore T100, polyclonal immobilized, 500 nM ISV

B1: SEQ ID NO: 23, Wildtype VHH (VHH)
VHH: EVQLVESGGGLVQAGGSLRLSCAASGRTFNNYAMGWFRRAPGKEREFVAAITRSGVRSGVSAIYGDSVKDRFTISRDNAKNTLYLQMNSLKPEDTAVYTCAASAIGSGALRRFEYDYSGQGTQVTVSS
% reduction [1]: 4%
ECLU confirmatory assay [1]: 60 ECLU
% reduction [2]: 53%
ECLU confirmatory assay [2]: 8680 ECLU
% reduction [3]: 20%
ECLU confirmatory assay [3]: 1780 ECLU
% reduction [4]: 7.3%
ECLU confirmatory assay [4]: 2710 ECLU

B4: SEQ ID NO: 24, Wildtype VHH + A14P (VHH)
VHH: B1 VHH with A14P
% reduction [1]: 10%
ECLU confirmatory assay [1]: 56 ECLU
% reduction [2]: 96%
ECLU confirmatory assay [2]: 668 ECLU
% reduction [3]: 91%
ECLU confirmatory assay [3]: 205 ECLU
% reduction [4]: 90.8%
ECLU confirmatory assay [4]: 268 ECLU

B7: SEQ ID NO: 29, Wildtype VHH + A14P + R39Q + K83R + T91Y + Q108L + 1 additional A at C-terminus (A114) (VHH)
VHH: B1 VHH with A14P, R39Q, K91R, T99Y, Q123L
% reduction [3]: 18%
% reduction [4]: 58.6%
ECLU confirmatory assay [4]: 1210 ECLU

B8: SEQ ID NO: 30, Wildtype VHH + A14P + R39Q + K83R + T91Y + Q108L + 3 A's at C-terminus (A114 + A115 + A116) (VHH)
VHH: B1 VHH with A14P, R39Q, K91R, T99Y, Q123L
% reduction [3]: 13%
% reduction [4]: -13.1%
ECLU confirmatory assay [4]: 3300 ECLU

B9: NB 3.12 (VHH)
VHH: EVQLVESGGGLVQAGGSLRLSCAASRSIGRLDRMGWYRHRPGEPRELVATITGGSSINYGDSVKGRFTISIDNSKNTVYLQMNSLRPEDTAVYYCNFNKYVTSRDTWGQGTQVTVSS
Binding (RU) at end of injection [5]: 86 RU

B10: NB 3.10 (VHH)
VHH: B9 VHH with Q112L
Binding (RU) at end of injection [5]: 91 RU

B11: NB 3.13 (VHH)
VHH: B9 VHH with A14P
Binding (RU) at end of injection [5]: 90 RU

B12: NB 3.15 (VHH)
VHH: B9 VHH with L11S, A14P, Q112L
Binding (RU) at end of injection [5]: 22 RU

B14: NB 3.14 (VHH)
VHH: B9 VHH with A14P, Q112L, T114Q
Binding (RU) at end of injection [5]: 79 RU

Continued, values first:

% reduction [1]: 1%
ECLU confirmatory assay [1]: 62 ECLU
% reduction [2]: 63%
ECLU confirmatory assay [2]: 6910 ECLU
% reduction [3]: 37%
ECLU confirmatory assay [3]: 1400 ECLU
% reduction [4]: 15.7%
ECLU confirmatory assay [4]: 2460 ECLU
B2: SEQ ID NO: 25, Wildtype VHH + K83R (VHH)
VHH: B1 VHH with K91R

% reduction [4]: 89.1%
ECLU confirmatory assay [4]: 319 ECLU
B3: SEQ ID NO: 27, Wildtype VHH + A14P + K83R + Q108L (VHH)
VHH: B1 VHH with A14P, K91R, Q123L

% reduction [1]: 5%
ECLU confirmatory assay [1]: 59 ECLU
% reduction [2]: 62%
ECLU confirmatory assay [2]: 6990 ECLU
% reduction [3]: 31%
ECLU confirmatory assay [3]: 1530 ECLU
% reduction [4]: 13.2%
ECLU confirmatory assay [4]: 2530 ECLU
B5: SEQ ID NO: 26, Wildtype VHH + Q108L (VHH)
VHH: B1 VHH with Q123L

% reduction [3]: 90%
% reduction [4]: 91.4%
ECLU confirmatory assay [4]: 251 ECLU
B6: SEQ ID NO: 28, Wildtype VHH + A14P + R39Q + K83R + T91Y + Q108L (VHH)
VHH: B1 VHH with A14P, R39Q, K91R, T99Y, Q123L

Binding (RU) at end of injection [5]: 88 RU
B13: NB 3.11 (VHH)
VHH: B9 VHH with A14P, R86K, Q112L
